{"source": "the nanobody polyreactivity screen of Harvey et al. (2022)"}
{"experiment": "yeast display, Sf9 membrane polyspecificity reagent, FACS + sequencing; frameworks hold sequencing errors", "method_in_brief": "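Galactose-induced (36–48 hours) yeast carrying a synthetic nanobody display library were exposed to 10% biotinylated, detergent-solubilized Sf9 membrane reagent at 4 °C for 1 hour. FACS followed streptavidin microbead enrichment, using low and high (top ~1%) gates for expression (anti-HA) and reagent binding (streptavidin). Colony PCR, MiSeq 2 × 250 sequencing and CDR-length filtering followed. Labels for polyreactivity reflect the gate of origin.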"}
{"sequence": "QVQLVESGGGLVQAGGSLRLSCAASGITFYKYVMGWYRQAPGKEREFVAAITWSGDSTYADSVKGRFTISRDNAKNTVYLQMNSLKPEDTAVYYCAARTWSRRQREYDYWGQGTQVTVSS", "polyreactivity (PSR sort gate)": "high polyreactivity"}
{"sequence": "QVQLVESGGGLVQAGGSLRLSCAASGSTFGKYAMGWYRQAPGKERELVATISWSGTSTYYADSVKGRFTISRDNAKNTVYLQMNSLKPEDTAVYYCAADSEGVGVKHIYDYWGQGTQVTVSS", "polyreactivity (PSR sort gate)": "low polyreactivity"}
{"sequence": "QVQLVESGGGLVQAGGSLRLSCASSGLTFAAYAMGWSRQAPGKERELVAAISRRGGSTYYADSVKGRFTISRDNAKNTVYLQMNSLKPEDTAVYYCAAENEVYWYDVEYWGQGTQVTVSS", "polyreactivity (PSR sort gate)": "high polyreactivity"}
{"sequence": "QVQLVESGGGLVQAGGSLRLSCAASGSTFWNYAMGWYRQAPGKERELVAAISQRGGSTYYADSVKGRFTISRDNAKNTVYLQMNSLKPEDTAVYYCNIDYAGELDYWGQGTQVTVSS", "polyreactivity (PSR sort gate)": "high polyreactivity"}
{"sequence": "QVQLVESRGGLVQAGGSLRLSFAASGSTFIKNAMGWYRQAPGKEWELVAAITSGGSRSYADSVKGRFTISRDNAKNTVYLQMNSLKPEDTAVYYCATDHDIGYNFYRYDYWGQGTQVTVSS", "polyreactivity (PSR sort gate)": "low polyreactivity"}
{"sequence": "QFQLEESVGGLVQAGGSLRLSCAASGFTFKSYAMGWYRQATVNVREFVARITYSGGGTYYADSVKGRFTISRDNAKNTVYLLMNSLKPEDTAVYYCARPFNRYLGLTRNGYTSDYWGQGTQVTVSS", "polyreactivity (PSR sort gate)": "high polyreactivity"}
{"sequence": "QVQLVESGGGLVQAGGSLRLSCAASGSILVLNDMGWYRQAPGKERELVATITSGGNTYYADSVKGRFTISRDNAKNTVYLQMNSLKPEDTAVYYCNARWQRPYDYWGQGTQVTVSS", "polyreactivity (PSR sort gate)": "low polyreactivity"}
{"sequence": "QVQLVESGGGLFQAGGSLRLSCAASVSIFSWYTMGWYRQAPGKERELDAAITSSGGSTYYADSVKGRFTISRDNAKNTVYLQMNSLKPEDTAVYYCAAKSWFYYLHRPYVRRYDYWGQGTQVTVSS", "polyreactivity (PSR sort gate)": "high polyreactivity"}
{"sequence": "QVQLVESGGGLVQAGGSLRLSCAASGRTFSLYAMGWSRPAPGKERELVAAITRRGGSTYYADSVKGRFTMSRDNAKNTVYLQMNSLKPEDTAVYYCAADSGYPWELDYWGQGTEVTVSS", "polyreactivity (PSR sort gate)": "low polyreactivity"}
{"sequence": "QVQLVESGGGLVQAGGSLRLSWAASGSTFGFYAMGWYRQAPGKERELVASISSGGTTYHADSVKGRFTISRDNAKNTVYLQMNSLKPEDTAVYYSAAFYVATSKLGYWGQGSQVTVSS", "polyreactivity (PSR sort gate)": "low polyreactivity"}
{"sequence": "QVQLVESGGGLVQAGGSLRLSCAASGLTFSYYAMGWYRQAPGKERELVAVISYSGSSTYYADSVKGRFTISRDNAKNTVYLQMNSLKPEDTAVYYCAAYLYPRGKGAYDFYYWGQGTQVTVSA", "polyreactivity (PSR sort gate)": "high polyreactivity"}
{"sequence": "QVQLVESGGGLVQAGGSLRLSCAASGSTFKKYAMGWYRQAPGKERELVAAITWTGGSTYYADSVKGRFTISRDNAKNTVYLQMNSLKPEDTAVYYCAAYKTYAVKYYWGQGTQVTVSS", "polyreactivity (PSR sort gate)": "high polyreactivity"}
{"sequence": "QVQLVESGGGLVQAGGSLRLSCAASGYTFRFNAMGWYRQAPGKEREFVAAIDFGGAGTYYADSVKGRFTISRDNAKNNVYLQMHSLKPEDTAVYYCNARDGVTSEFDYWGQGTQVTVSS", "polyreactivity (PSR sort gate)": "low polyreactivity"}
{"sequence": "QVQVVESGGGLVQAGGCLRLSCAASGVIFVGYAMGWYRQAPGKERELVAAISWSGGSTYYADSVKGRFTISRDKAKNTVYLQMNSLKPEDTAVYYCAAYLYGYEYWGQGTQVTVSS", "polyreactivity (PSR sort gate)": "high polyreactivity"}
{"sequence": "QVQLVESGGGLVQAGGSLRLSCAASGSIFTIYAMGWYRQAPGKERELVATITGGGGSTYYADSVKGRFTISRDNAKNTVYLQMNSLKPEDTAVYYCATDFRRTRSYGNSRSYGYWGQGTQVTVSS", "polyreactivity (PSR sort gate)": "low polyreactivity"}
{"sequence": "QVQLVESGGGLVQAGGSLRLSCAASGFIFSSNAMGWYRQAPGKERELVAGITASGVSTYYADSVKGRFTISRDNAKNTVYLQMNSLKPEDTAVYYCAALGLYYYFYSQYIDWDDYWGQGTQVTVSS", "polyreactivity (PSR sort gate)": "low polyreactivity"}
{"sequence": "QVQLVESGGGLVQAGGSLRLSWAASGSIFNTYVMGWYRQAPGKEWELVAAITYSAGGDTYYADSVKGRFTISRDNAKNTVYLQMNSLKPEDTAVYYCAAEYTYLDAYGSYDYWGQGTQVTVSS", "polyreactivity (PSR sort gate)": "low polyreactivity"}
{"sequence": "QVQLVESGAGLVLAGGSLRLSCAASGRTFRLYAMGWYRQAPGKERELVAAISYSDGRTYYADSVKGRFTISRDNAKNTVYLQMNSLKPEDTAVYYCAAETLYVAGSYYWGQGTQVTVSS", "polyreactivity (PSR sort gate)": "high polyreactivity"}
{"sequence": "QVQLVDSGGGLVQAGGSLRLSCAASGRTFAYNVMGWYRQAPGKERELVAAISRGGGRTYYADSVKGRFTIARDNAKNTVYLQMNSLKPEDTAVYYCNAYLFFLNRVWSFDYWGQGTQVTVSS", "polyreactivity (PSR sort gate)": "high polyreactivity"}
{"sequence": "QVQLVESGGGLVQAGGSLRLSCAASGSIFTVYAMGWYRQAPGKESELVAGITRRGSTYYADSVKGRFTISRDNAKNTFYLLMNRLKPEDTAVYYCAASRWVLESSGRVNWYDYWGQVTQVTVSS", "polyreactivity (PSR sort gate)": "low polyreactivity"}
{"sequence": "QVQLVESGGGLVQAGGSLRLSCAASGFTINFYAMGWYRKAPGKERELVAAITASGGGSTYYADSVKGRFTISRDNAKNTVYLQMNSLKPEDTAVYYCNADYPGSFYTYDYWGQGTQVTVSS", "polyreactivity (PSR sort gate)": "low polyreactivity"}
{"sequence": "QVQLVESGGGLVQAGGSLRLSCAASGRIFRDYAMGWYRQAPGKERELVAAITGSGGRTYYADSVKGRFTISRDTAKNTVYLQMNSLKPEDTAVYYCAAYLGRRGQEMDYWGQGTQVTVSS", "polyreactivity (PSR sort gate)": "high polyreactivity"}
{"sequence": "QVQLVETGRGLVQAGGSLRLSSAASGSTFGPNAMGWYRQAHGKVRELVAAITWSGSTTYYADSVKGRFTISRDIAKNTVYLQMNSLKPEDTPVYYCAALRGYRSNWRYGYWGQGTQVTVSS", "polyreactivity (PSR sort gate)": "low polyreactivity"}
{"sequence": "QVKLVESGGGLVQAGGSLRLSCAASGSTFPGYAMGWYRQAPGKERELVAAGGSTYYADSVKGRFTISRDNAKNTVYLQMNSLKTEDTAVYYCAATWGSVQKGTYYYWGQGTQVTVSS", "polyreactivity (PSR sort gate)": "low polyreactivity"}
{"sequence": "QVQLVESGGGLVQAGGSLRLSCAASGSIFLEYAMGWYRQAPGKERELVAAISSSGGSTYYADSVKGRFTISRDNAKNTVYLQMNSLKPEDTAVYYCAAGKSKYGVRGYYWGQGTQVTVSS", "polyreactivity (PSR sort gate)": "high polyreactivity"}
{"sequence": "QVQLVESGGGLVQAGGRLRLSCAASAFTFYYYAMGWYRPAPGKERELVAAISWSGGSTYYADSVKGRFTFSRDNAKNTVYLQMNSLKPEDTAVYYCAADVYKQYGYYYWGQGTQVTVSS", "polyreactivity (PSR sort gate)": "high polyreactivity"}
{"sequence": "QVQLVESGGVLVQAGGSLRLSCAASGRIFPTYAMGWYRQAPGKERELVAAISQRGGSTYYADSVKGRFTISRDNAKNTVYLQMNSLKPEDTAVYYCAASYYRQSGEYDYWGQGTQVTVSS", "polyreactivity (PSR sort gate)": "low polyreactivity"}
{"sequence": "QVQLVESGGGLVQGGGSLRLSCAASGRTFYWNAMGWYRQAPGKERELVAAIRWRGGNTYYADSVKGRFTISRDIEKNTVYLQMNSLKPEDSAVYYCAAAGGNTEMGYWGQGSQVTVSS", "polyreactivity (PSR sort gate)": "high polyreactivity"}
{"sequence": "QVQLVESGGGLVQAGGSLRLSCAASGRTFRFYVMGWYRQAPGKERELVAVIRYRGGSTYYADSVKGRFTISRDNAKNTVYLHMNSLTPEDTAVYYCNADFLLAGNEYDYWGQGTQVTVSS", "polyreactivity (PSR sort gate)": "high polyreactivity"}
{"sequence": "QVQLVESGGGLVQAGGSLRLSCAASGFTFWWYAMGWYRQAPGKERELVASIDTRGGTYYADSVKGRFTISRDNAKNTVYLQMNRLKPEDTAVYYCNADGAYGNYRGGYWGQGTQVTVSS", "polyreactivity (PSR sort gate)": "high polyreactivity"}
{"sequence": "QVHLVVSGGGLVQAGRSLRLICAASGSTFKAYAMGWYRQAPGKERELVAAITRRGTSTYYADSVKGRFTISRDNAKKTVYLQMNSLKPEDTADYYSNAKYVSDRSSAVSFDYWGQGTQVTVSS", "polyreactivity (PSR sort gate)": "low polyreactivity"}
{"sequence": "QVQLVESGGGLVQAGGSHRLSCDASGYIFRRYAMGWYRQAPGKERELVAAISWRGGSTYYADSVKGRFTISRDNAKNTVYLQMNSLKPEDSAVYYCAKVVPGAGHLDEYWGQGTQVTVSS", "polyreactivity (PSR sort gate)": "high polyreactivity"}
{"sequence": "QVQLVESGGGLVQAGGSLRLSCAASGSIFPYYAMGWYRQAPGKERELVASISRSVGSTFYADSVKGRFTISRDNAKNTVYLQMNSLKPEDTAVYYCAVRYFAQFGDYDYWGQGTQVTVSS", "polyreactivity (PSR sort gate)": "high polyreactivity"}
{"sequence": "QVQLVESGGGLVQAGGSLRLSCAASGRIFSEYAMGWYRQAPGKERELVAAISRRGGRTYYADSVKGRFTISRDNAKNTVYLQMNSLKPEETAVYYCAAKIIWFTIRHGSAGFKYWGQGTQVTVSS", "polyreactivity (PSR sort gate)": "high polyreactivity"}
{"sequence": "QVQLVESGGGLVQAGGSLRLICAASGRTFARYTMGWYRQARGKERELVASITRGGSTYYADSVKGRFTISRDNAKITVYLQMYSLKPEDSAVYYCNAVYIVGGDWGQGTQVTVSS", "polyreactivity (PSR sort gate)": "high polyreactivity"}
{"sequence": "QVQLEESGGGLVQAGGSLRLSCAASGSIFVYYGMGWYRQAPGKERELVAAISSGGSTHYADSVKGRFTISRDNAKNTVYLQMNSLKPEDTAVYYCNARAYGNGLGTGYFGKHRYDYWGQGTQVTVSS", "polyreactivity (PSR sort gate)": "low polyreactivity"}
{"sequence": "QVQLVESGGGLVHAGGSLRLSCAASGGIYWYYAMGWYRQAPGKERELVAAISITDGSTYYADSVKGRFTISRDKAKNTVYLQMNSLKPEDTAVYYCAAEEEEYIYDYWGQGTQVTVSS", "polyreactivity (PSR sort gate)": "high polyreactivity"}
{"sequence": "QVQLVESGGGLVQAGGSLRLSCAPSGRIFSYNTVMGWYRQAPGKERELVAAITYSSASTYYADSVKGRFTISRDNAKNTVYLQMNSLKPEDTAVYYCAAVRYERGLWSDYWGQGTQVTVSS", "polyreactivity (PSR sort gate)": "high polyreactivity"}
{"sequence": "QVQLVESGGGLVQAGGSLRLSCAASGRTFTYNTMGWYRQAPGKERELVAAISSRGGRTYYADSVKGRFTISRDNAKNTVYLQLNSLKPEDTAVYACAVYGYYALTHWEYDYWGQGTQVTVSS", "polyreactivity (PSR sort gate)": "high polyreactivity"}
{"sequence": "QVQLVESGGGLVQAGGSLRLSCAASGRIFGIYAMGWYRHAPGKERELVATITWSGGSTYYADSVKGRFTISRDNAKNTVYLQMNSLKPEDTAVYYCAAYYRQFFGWYDYWGQGTQVTVSS", "polyreactivity (PSR sort gate)": "high polyreactivity"}
{"sequence": "QVQLVESGGGLVQAGGSLRLSCAASGSIFKRYAMGWYRQAPGKERELVAAISTSGGRTYYADSVKGRFTISRDNAKNTVYLQMNRLNQEDTAVYYCAADIWARYYFWGFEHDYWGQGTQVTVSS", "polyreactivity (PSR sort gate)": "low polyreactivity"}
{"sequence": "QVQLVESGGGLVQAGGSLRLSCAASGSTFGTYAMGWYRQAPGKERELVAAISSGDSTTYADSVKGRFTISRDNAKNTVYLQMNSLKPEDTAVYYCAARTFLMRNGGYNYWGQGTQVTVSS", "polyreactivity (PSR sort gate)": "low polyreactivity"}
{"sequence": "QVQLVESGGGLVQAGGSLRLSCAATGSIFIRYAIGWYRHEPGKERELVAAITSTGSTSYADSVKWRFTISRDNAKNTVYLQMNSLKPEDTAVYYCAAAGFWHGYFGYGYWGQGTQVTVSS", "polyreactivity (PSR sort gate)": "low polyreactivity"}
